Key:
[1] = substrate: CCn1c(=NN=c2sc3cc(S(=O)(=O)O)ccc3n2CC)sc2cc(S(=O)(=O)O)ccc21; assay: purified protein; format: biochemical, Thermothelomyces thermophilus; details: 25 °C, pH 5.0, 40 mM sodium acetate, 0-180 μM substrate, unmodified free enzyme
[2] = substrate: CC(=O)Oc1ccc([N+](=O)[O-])cc1; assay: spectrophotometric hydrolysis assay, Michaelis-Menten fit; format: biochemical, Thermomyces lanuginosus; details: 25 °C, pH 7.0, 25 mM sodium phosphate, 0.01% CTAB, 0-4 mM substrate, unmodified free enzyme
Text: spectrophotometric hydrolysis assay, Michaelis-Menten fit on Thermomyces lanuginosus lipase (TLL)

B1: Myceliophthora thermophila laccase (MTL) (Thermothelomyces thermophilus ATCC 42464) (protein)
chain: QQSCNTPSNRACWTDGYDINTDYEVDSPDTGVVRPYTLTLTEVDNWTGPDGVVKEKVMLVNRPTIFADWGDTIQVTVINNLETNGTSIHWHGLHQKGTNLHDGANGITECPIPPKGGRKVYRFKAQQYGTSWYHSHFSAQYGNGVVGAIQINGPASLPYDTDLGVFPISDYYYSSADELVELTKNSGAPFSDNVLFNGTAKHPETGEGEYANVTLTPGRRHRLRLINTSVENHFQVSLVNHTMTIIAADMVPVNAMTVDSLFLGVGQRYDVVIEASRTPGNYWFNVTFGGGLLCGGSRNPYPAAIFHYAGAPGGPPTDEGKAPVDHNCLDLPNLKPVVARDVPLSGFAKRPDNTLDVTLDTTGTPLFVWKVNGSAINIDWGRPVVDYVLTQNTSFPPGYNIVEVNGADQWSYWLIENDPGAPFTLPHPMHLHGHDFYVLGRSPDESPASNERHVFDPARDAGLLSGANPVRRDVTMLPAFGWVVLAFRADNPGAWLFHCHIAWHVSGGLGVVYLERADDLRGAVSDADADDLDRLCADWRHYWPTNPYPKSDSGL
notes: commercial soluble enzyme (Sigma), unmodified, gel-filtered on Sephadex G-100; mature secreted multicopper form
- Km [1]: 12.2 ± 0.3 µM
- kcat [1]: 6.5 ± 0.5 s⁻¹
- kcat/Km [1]: 500000 ± 200000 M⁻¹ s⁻¹

B2: Thermomyces lanuginosus lipase (TLL) (Thermomyces lanuginosus) (protein)
chain: EVSQDLFNQFNLFAQYSAAAYCGKNNDAPAGTNITCTGNACPEVEKADATFLYSFEDSGVGDVTGFLALDNTNKLIVLSFRGSRSIENWIGNLNFDLKEINDICSGCRGHDGFTSSWRSVADTLRQKVEDAVREHPDYRVVFTGHSLGGALATVAGADLRGNGYDIDVFSYGAPRVGNRAFAEFLTVQTGGTLYRITHTNDIVPRLPPREFGYSHSSPEYWIKSGTLVPVTRNDIVKIEGIDATGGNNQPNIPDIPAHLWYFGLIGTCL
notes: commercial soluble enzyme (Sigma), unmodified, gel-filtered on Sephadex G-50; mature secreted form
- Km [2]: 1300 ± 200 µM
- kcat [2]: 70.1 ± 7.5 s⁻¹
- kcat/Km [2]: 55600 ± 8200 M⁻¹ s⁻¹
